Patent US20020102658A1
Positions count from the first letter of the chain named.

T1: rat AILIM (rat) (UniProt Q9R1T7)
T1 sequence (looked up): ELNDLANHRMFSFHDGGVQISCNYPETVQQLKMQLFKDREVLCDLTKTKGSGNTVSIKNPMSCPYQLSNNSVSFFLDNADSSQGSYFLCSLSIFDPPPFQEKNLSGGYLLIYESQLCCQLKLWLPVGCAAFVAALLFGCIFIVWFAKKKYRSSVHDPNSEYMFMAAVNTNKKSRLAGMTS

T2: human AILIM-IgFc (recombinant chimeric antigen of the extracellular region of human AILIM and the constant region (Fc) of human IgG1) (human) (UniProt Q9Y6W8)
T2 sequence (biotin-labeled in the inhibition ELISA of Example 14, looked up): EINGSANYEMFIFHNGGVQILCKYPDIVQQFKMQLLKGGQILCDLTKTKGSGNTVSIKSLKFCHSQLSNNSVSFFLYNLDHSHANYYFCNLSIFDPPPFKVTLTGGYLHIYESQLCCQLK

T3: mouse AILIM (mouse) (UniProt Q9WVS0)
T3 sequence (looked up): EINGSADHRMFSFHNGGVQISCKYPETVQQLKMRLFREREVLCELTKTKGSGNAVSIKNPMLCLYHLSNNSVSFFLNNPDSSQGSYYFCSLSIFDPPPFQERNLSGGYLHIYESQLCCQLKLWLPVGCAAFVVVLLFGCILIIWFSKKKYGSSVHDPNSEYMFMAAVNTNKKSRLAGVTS

B1: human anti-human AILIM monoclonal antibody JMab-138 (clone AII289) (antibody, from another filing, human IgG2, V domains shown)
VH: EVQLVESGGGLVQPGGSLRLSCAASGFTFSSYDMHWVRQATGKGLEWVSAIGTAGDTYYPGSVKGRFTISRENAKNSLYLQMNSLRAGDTAVYYCVRDNRKVTHEHYYYYGMDVWGQGTTVTVSS
VL: EIVLTQSPGTLSLSPGERATLSCRASQNIRSSYLAWYQQKPGQAPGLLIYGASSRATGIPDRFSGSGSGTDFTLTISRLEPEDFAVYYCQQFGSSPMCSFGQGTKLEIKR
B2: human anti-human AILIM monoclonal antibody JMab-139 (clone AII394) (antibody, from another filing, human IgG2, V domains shown)
VH: B1 VH with N99K, K101T
VL: B1 VL with N28S, R30S, Y33S, Y50F

What was measured:
rat AILIM (rat) = target: T1, rat AILIM (rat); experiment: cell ELISA on recombinant CHO cells overexpressing rat AILIM; given as ED50
[1] = target: T2, human AILIM-IgFc (recombinant chimeric antigen of the extracellular region of human AILIM and the constant region (Fc) of human IgG1) (human); experiment: SPR, Biacore X; human AILIM-IgFc immobilised on sensor chip, antibody in flow
[2] = target: human AILIM (activation inducible lymphocyte immunomodulatory molecule) (human) (UniProt Q9Y6W8); experiment: cell ELISA on recombinant CHO cells overexpressing human AILIM; given as ED50
mouse AILIM (mouse) = target: T3, mouse AILIM (mouse); experiment: cell ELISA on recombinant CHO cells overexpressing mouse AILIM; given as ED50

Binder | EC50 (rat AILIM (rat)) | Kd [1] | koff [1] | EC50 [2] | EC50 (mouse AILIM (mouse))
B1 | 0.057 µg/mL | 1.1 nM | 4.2e-05 s⁻¹ | 0.0105 µg/mL | 0.053 µg/mL
B2 | 0.09 µg/mL | 0.77 nM | 2.4e-05 s⁻¹ | 0.0106 µg/mL | 0.06 µg/mL
